Test results published in patent publication US20190345206A1 (MOMENTA PHARMACEUTICALS, published 2019).

Key:
FcγRI = biological target: T1, FcγRI (UniProt P12314 16-374, limits assumed); test: cell-based TR-FRET competition assay (CISBIO kit), FcγRI cells
T1 construct: whole, on cells; also called CD64
Experimental: (§1) A cell-based binding assay was utilized to confirm that the amino acid modifications at positions I253, e.g., I253A, and R292, e.g., R292P, were specific to the intended receptors, e.g., reduced binding affinity to the FcRn receptor and FcγRIIb receptor, respectively. Relative binding of Fc constructs and controls to Fc gamma receptors (FcγRs) was measured using cell-based homogeneous time-resolved fluorescence resonance energy transfer (TR-FRET) competition assays (CISBIO®) kits for FcγRI, FcγRIIa H131, FcγRIIb, and FcγRIIIa V158. Assay reagents were prepared according to the manufacturer's instructions. A 10-point, 3-fold serial dilution series, plus one blank per sample, was generated using an automated liquid handler (Freedom EVOware 150, TECAN®). Assay plates were read on a PHERAstar fluorescent reader (BMG Labtech GmbH) at 665 and 620 nm. An IgG1 sample was used as a control.

FcγRIIIa V158 = biological target: T2, FcγRIIIa V158 (UniProt P08637 17-254, limits assumed); test: cell-based TR-FRET competition assay (CISBIO kit), FcγRIIIa V158 cells
T2 construct: whole, on cells; V158 is the allotype as printed (mature numbering); also called CD16a
T2 sequence (P08637 17-254 F176V limits assumed): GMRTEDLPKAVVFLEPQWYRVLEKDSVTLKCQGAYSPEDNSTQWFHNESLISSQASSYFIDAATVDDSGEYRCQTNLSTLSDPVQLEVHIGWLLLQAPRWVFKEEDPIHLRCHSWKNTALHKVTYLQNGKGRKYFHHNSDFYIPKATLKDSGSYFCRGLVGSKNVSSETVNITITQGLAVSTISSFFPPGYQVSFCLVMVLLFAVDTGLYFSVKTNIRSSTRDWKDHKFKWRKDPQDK
Experimental: as §1

Recombinant human FcRn = biological target: T3, Recombinant human FcRn (human, UniProt P55899 24-297; P61769 21-119, limits assumed); test: SPR at pH 6.0; human FcRn in solution over Fc construct captured by goat anti-human IgG
T3 construct: also called neonatal Fc receptor
Text: To assess the impact of the amino acid modifications at position I253, e.g., I253A, and R292, e.g., R292P, on FcRn binding a surface plasmon resonance (SPR) binding experiment was designed to measure the affinity and normalized binding level of solution-phase human FcRn to sensor-bound Fc constructs at pH 6.0. A goat anti-human IgG was immobilized on reference and test sensor surfaces using amine coupling chemistry. Fc constructs were captured on the test sensor surface. Recombinant human FcRn was flowed over the sensor surface in a dilution series with a top concentration of 1.0 μM. The sensor surface was regenerated at the end of each cycle with 10 mM glycine pH 1.7. Double-reference subtracted sensorgrams were subjected to equilibrium binding analysis; the maximum binding level (RMax) and the equilibrium dissociation constant (KD) were estimated. The normalized maximum binding level was calculated by dividing the RMax by the FC-construct capture level. Construct 16 was captured at the same level as construct 4, […] (FIG. 20).

T1 sequence (P12314 16-374 limits assumed): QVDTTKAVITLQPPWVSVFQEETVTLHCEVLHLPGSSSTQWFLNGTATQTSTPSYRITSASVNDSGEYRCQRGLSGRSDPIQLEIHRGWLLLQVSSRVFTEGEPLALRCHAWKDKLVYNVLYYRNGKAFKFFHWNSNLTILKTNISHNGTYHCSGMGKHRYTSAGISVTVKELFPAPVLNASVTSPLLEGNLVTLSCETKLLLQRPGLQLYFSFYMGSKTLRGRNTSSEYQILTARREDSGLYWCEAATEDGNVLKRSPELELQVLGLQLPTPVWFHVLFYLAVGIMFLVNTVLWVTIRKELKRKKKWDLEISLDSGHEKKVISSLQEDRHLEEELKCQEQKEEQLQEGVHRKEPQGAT

| binding result (FcγRI) | binding result (FcγRIIIa V158) | Binder | binding result (Recombinant human FcRn) |
| --- | --- | --- | --- |
| binds | binds | Fc construct 18 (other, Construct 4 with R292P in all three Fc domains and I253A in the two N-terminal Fc domains; also called Q1) chain 1: DKTHTCPPCPAPELLGGPSVFLFPPKPKDTLMASRTPEVTCVVVDVSHEDPEVKFNWYVDGVEVHNAKTKPPEEQYNSTYRVVSVLTVLHQDWLNGKEYKCKVSNKALPAPIEKTISKAKGQPREPQVYTLPPCRDKLTKNQVSLWCLVKGFYPSDIAVEWESNGQPENNYKTTPPVLDSDGSFFLYSKLTVDKSRWQQGNVFSCSVMHEALHNHYTQKSLSLSPGKGGGGGGGGGGGGGGGGGGGGDKTHTCPPCPAPELLGGPSVFLFPPKPKDTLMISRTPEVTCVVVDVSHEDPEVKFNWYVDGVEVHNAKTKPPEEQYNSTYRVVSVLTVLHQDWLNGKEYKCKVSNKALPAPIEKTISKAKGQPREPQVYTLPPSRDELTKNQVSLTCLVKGFYPSDIAVEWESNGQPENNYKTTPPVLKSDGSFFLYSDLTVDKSRWQQGNVFSCSVMHEALHNHYTQKSLSLSPG chain 2: DKTHTCPPCPAPELLGGPSVFLFPPKPKDTLMASRTPEVTCVVVDVSHEDPEVKFNWYVDGVEVHNAKTKPPEEQYNSTYRVVSVLTVLHQDWLNGKEYKCKVSNKALPAPIEKTISKAKGQPREPQVCTLPPSRDELTKNQVSLSCAVDGFYPSDIAVEWESNGQPENNYKTTPPVLDSDGSFFLVSKLTVDKSRWQQGNVFSCSVMHEALHNHYTQKSLSLSPG | – |
| – | – | Fc construct 19 (other, Construct 4 with R292P and I253A in all three Fc domains; also called Q2) chain 1: DKTHTCPPCPAPELLGGPSVFLFPPKPKDTLMASRTPEVTCVVVDVSHEDPEVKFNWYVDGVEVHNAKTKPPEEQYNSTYRVVSVLTVLHQDWLNGKEYKCKVSNKALPAPIEKTISKAKGQPREPQVYTLPPCRDKLTKNQVSLWCLVKGFYPSDIAVEWESNGQPENNYKTTPPVLDSDGSFFLYSKLTVDKSRWQQGNVFSCSVMHEALHNHYTQKSLSLSPGKGGGGGGGGGGGGGGGGGGGGDKTHTCPPCPAPELLGGPSVFLFPPKPKDTLMASRTPEVTCVVVDVSHEDPEVKFNWYVDGVEVHNAKTKPPEEQYNSTYRVVSVLTVLHQDWLNGKEYKCKVSNKALPAPIEKTISKAKGQPREPQVYTLPPSRDELTKNQVSLTCLVKGFYPSDIAVEWESNGQPENNYKTTPPVLKSDGSFFLYSDLTVDKSRWQQGNVFSCSVMHEALHNHYTQKSLSLSPG chain 2: DKTHTCPPCPAPELLGGPSVFLFPPKPKDTLMASRTPEVTCVVVDVSHEDPEVKFNWYVDGVEVHNAKTKPPEEQYNSTYRVVSVLTVLHQDWLNGKEYKCKVSNKALPAPIEKTISKAKGQPREPQVCTLPPSRDELTKNQVSLSCAVDGFYPSDIAVEWESNGQPENNYKTTPPVLDSDGSFFLVSKLTVDKSRWQQGNVFSCSVMHEALHNHYTQKSLSLSPG | no binding (tested: top concentration of 1.0 µM) |
